Laboratory results taken from US9371519B2, “Complex type sugar chain hydrolase” (National Institute of Advanced Industrial Science and …, priority 2011, dated 2016).

B1: Endo-Zr: endo-β-N-acetylglucosaminidase from Zygosaccharomyces rouxii ATCC2623, amino acid sequence SEQ ID NO. 13, 639 amino acids (protein, listed as Zygosaccharomyces rouxii)
chain: MKRINQVPGKPEITSLYFDDLNSLQRWFDKGFMDSRDLSNVPKERYSNYVKFEKDSIITIPNLSARKTEIIVCHDFKGGYQSGHDLYPNGQYGTESCKPYSLRYPEIVDKFVYFSHHCVTIPPSPWTNYLHRHSIPVLGTLILEHYPHNGELFKKNAKGEFLYVKYLVELCRKFHFEGWLINFETVFGNNSKQVIPFLRELTARVECEIYGGSVIWYDAFTTFSNKPSHQNEVNLFNYDAYENSSQFMTNYMWDSHNVGNSLRNVGALGMHSHVALGVDVWGRNMQVCRGGFESNIAIYYAKRFGTNAVIFAPGWTYENFGEDQFYEKDDIFWGNIKSTLQLDSYSDSQLSSWFVSESKKTRYFTTFFSTGSGNFFNLNGRRISNDNWVQLGLSTPFPVNSHSYLSFKDSFVGGSCLALPLSPMENGKLHLFRFEQFIKDQQKTSDSEIRVKLSYKSLGALPPVKLVIKCFVIRRGKRSKTILKVDDVSLVLPLSHSACQTAQGSTKWAVVEQIVPLPSLESRFLEEYYVEDAHLEWTMDNNHDEWLMVPERTEDLDCKLLIGSLCLEIGPHEDNNKRQIVRNGPQLSWQDNESSFMWLKLQDGKLDSVLFTPTTKVNGKQPTILECGRNGTLKFVVKK
B2: Endo-Cp: endo-β-N-acetylglucosaminidase from Candida parapolymorpha DL-1 ATCC26012, amino acid sequence SEQ ID NO. 5, 745 amino acids (protein, listed as Candida parapolymorpha)
chain: MPRNTAKHSSLPQTNLPLSSLESSFFDSLDELANWERRIHEKSFELDELNKPTEKLAHYTRARQQSTSEDVKLLVCHDLKGGYQVNEDEDPLGYFPHPDGQHYFLQYPQLVDKFVYFSHHRVSIPPVSWINVCHRNAIKCLGTVIFEGNTYRDFEEADKLLTKQDGEYVFVRCLVALVEYFQFDGYLFNIETRFSNTRIASLLEPFLEQLRAELHVRNPSTELIWYDSYIYPENRVLYKNGVTEANYNFFSCCDSFFTNYWWNVKHLQDNIKNVGVLGSRLKVYAGYDVWGRGTMIGKGGYDSALACQMIKKYRSNVALFAPAWTYEYLARKDFTQNDTRFWIGLFDGESSMATTFKPYSSPLYKINDSNFVFYTNFGSGEGCAFYECGEKVYRDNWVNGSLQMEIPYAIHTRNKNGIQWTLSKEDSFHGGSCVEIKYNEVVDDKGYQVFNNQTINSFSLFSFVQDCSFPTVNVKLTYKLNHKTKSFFKLKIGYYIERRYRTVQKVRSGCLVVPLLSTNDQWFTIEEPFHVSLQNSHEFIVLDSATIFYEETEDPFMRAHVVEDQSTSSVIDNEEYEKLMNSEIYFDDEDEDWILVPSDISMESTDNGGRENHTWKVISNQIRKKHPKSHPSTSPVLKLGELAIINANDYPSDSFFKLMPVNSIDVRRWEGKILLIWKTNQDSVLYHLIFVDDVFQGISLVSKFVFEDQAVDEKSFKTKSGGSTKVRIDTVNRLGILVKGTDM
B3: Endo-Pa: endo-β-N-acetylglucosaminidase from Pichia anomala ATCC36904, amino acid sequence SEQ ID NO. 9, 656 amino acids (protein, listed as Pichia anomala)
chain: MQHDHAAIKFEEDSISSQRFSSLDEVEKWYNTKNRSPLDDLRIPRESLSHYNRFRDNNDEIKVLVCHDFKGNYQEGEDENPLGYFPHSSGQHYFIQFPSLVDLFIFFSHYKIAVPPVSWINSLHRQGIPVLGTLIFEGTDVSESDKLLEKNENGDFKYLEILCELVRHYGFDGWLVNMESHFSSVAKAQDLLLFDEALRSTLHLKVPGSKLIWYDSLITQKNRVFYQNAVNEWNYDHFSTSDLFFTNYWWNEEDLKRNILNIGLQGVKQKLFVGVDIWGRGSRIGNGGFESGLAINYLKRYSTNVALFAPAWTYENFEEDQFLIKDRKFWIGDQTSDETGGSVATYVSHYTTPVYVKDQNVKFYTNFSVGEGTKYRVFAHTVFKNNWVNGNLQLPTPIIDNEKRIDIYYKESFNGGSSLKVTQRNSILNDGKSNILQLFSFKNDIHSNNLNVSVSFKYLSEIPLNSTFQLEIKFYIERRYRSVTRVRDGTFKLPLAFSNKNWKYIETSFALPRLQIREHFVLEGLQIRWVDNVDELSSSIGTSGDFTESWIIVPQNSDPNAVYELLIGDLLVEGIKTANGNIDAVTKLSRKITLDSRSILATWKDDTEVLYWIIYVNAKFLGIAHKSLWRVQRGDKLRVDVFTRSGKLVKGEDIFI

Assay: Hydrolysis activity for various PA-labeled sugar chains (HPLC peak area ratio, relative to M8A)
Assay type: biochemical
Settings: 1 μM substrate, pH 5.3, 30° C.
Protocol: (§1) Using the Endo-Om partially purified enzyme solution of the present invention, hydrolysis activity for various PA-labeled commercially available sugar chains (TaKaRa-Bio Inc.) were measured, and the results are shown in the following (Table 1) together with the measurements in a literature on Endo-M (Non Patent Literature 6). The hydrolysis activity at that time was calculated from the peak area ratio between the PA-labeled sugar chain and its hydrolysate as substrates in HPLC, and the relative activity for the various sugar chains was calculated, with the hydrolysis activity for the sugar chain with an M8A structure set at 100%.
as §1, with “Endo-Cp” for “Endo-Om”, “2)” for “1)”
as §1, with “Endo-Pa” for “Endo-Om”, “3)” for “1)”
as §1, with “Endo-Zr” for “Endo-Om”, “4)” for “1)”
Comparison of hydrolysis activity for PA-labeled sugar chains having various structures was carried out as follows. A reaction solution containing a sodium acetate buffer at final concentration of 100 mM (pH 5.3), 0.5 M of NaCl, 1 μM of any of various PA-labeled sugar chains (TaKaRa-Bio Inc.), and an Endo-Om purified enzyme solution (total volume: 10 μl) was incubated at 30° C. for 3 to 12 hours, and heated at 95° C. for 5 minutes thereby stopping the enzyme reaction. The reaction solution was subjected to HPLC, and enzymatic activity was calculated from the peak area ratio between the PA-labeled sugar chain as the substrate and its hydrolysate. The column used herein was Cosmosil 5C18-ARII (2.0.150 mm, Nacalai Tesque, Inc.), the solvents were a 0.1 M ammonium acetate buffer (pH 4.0: solvent A), a 0.1 M ammonium acetate buffer (pH 4.0), and 0.5% 1-butanol (solvent B). Linear gradient elution was carried out using the solvent B: 5%-50% at a flow rate of 0.5 ml/min over a period of 24 minutes, and detection was carried out using a fluorescence detector (excitation wavelength 320 nm, and fluorescence wavelength 400 nm). The enzymatic activity was calculated with the activity hydrolyzing 1 μmol of the PA-labeled sugar chain in 1 minute under the above-described reaction conditions as 1 Unit, and the relative activity for various sugar chains were calculated with the hydrolysis activity for the sugar chain having an M8A structure as 100%. […]

[1] = substrate drawing 1/drawing 14/drawing 27/drawing 40 (M3B structure), M8A = 100%
[2] = substrate drawing 2/drawing 15/drawing 28/drawing 41 (M5A structure per text), M8A = 100%
[3] = substrate drawing 4/drawing 17/drawing 30/drawing 43 (high-mannose type M8A-PA sugar chain, set at 100%)
[4] = substrate drawing 5/drawing 18/drawing 31/drawing 44 (M9A structure per text), M8A = 100%
[5] = substrate drawing 7/drawing 20/drawing 33/drawing 46, M8A = 100%
[6] = substrate drawing 8/drawing 21/drawing 34/drawing 47, M8A = 100%
[7] = substrate drawing 9/drawing 22/drawing 35/drawing 48, M8A = 100%
[8] = substrate drawing 6/drawing 19/drawing 32/drawing 45, M8A = 100%

Molecule | Relative activity (hydrolysis activity for PA-labeled sugar chain) [1] [%] | Relative activity (hydrolysis activity for PA-labeled sugar chain) [2] [%] | Relative activity (hydrolysis activity for PA-labeled sugar chain) [3] [%] | Relative activity (hydrolysis activity for PA-labeled sugar chain) [4] [%] | Relative activity (hydrolysis activity for PA-labeled sugar chain) [5] [%] | Relative activity (hydrolysis activity for PA-labeled sugar chain) [6] [%] | Relative activity (hydrolysis activity for PA-labeled sugar chain) [7] [%] | Relative activity (hydrolysis activity for PA-labeled sugar chain) [8] [%]
B1 | 85.7 | 39.8 | 100 | 33.4 | 13.2 | 17.3 | 30.0 | 
B2 | 37.3 | 15.1 | 100 | 21.6 | 4.7 | 1.1 | 3.1 | 0.4
B3 | 152 | 94.3 | 100 | 115 | 35.4 | 36.3 | 40.5 | 4.0
